The values that follow come from patent publication US6133417.

Test [1] deals with NADPH-cytochrome P-450 oxidoreductase purified from Sorghum bicolor (Sorghum bicolor).
Test [2] shares this target. This is another data set of the same source.

“modified cytochrome P-450TYR, in which the 35 N-terminal amino acids are replaced by the nine N-terminal amino acids from bovine 17alpha hydroxylase, expressed in E. coli (from UniProt P05185) (enzyme)”: the oxime production in reconstitution experiments in dilaurylphosphatidylcholine micelles (turnover rate) (nmol oxime per nmol P-450TYR per minute) in test [1] worked out at 349.

B1: cytochrome P-450TYR from Sorghum bicolor (L.) Moench (enzyme)
chain: ATMEVEAAAATVLAAPLLSSSAILKLLLFVVTLSYLARALRRPRKSTTKCSSTTCASPPAGVGNPPLPPGPVPWPVVGNLPEMLLNKPAFRWIHQMMREMGTDIACVKLGGVHVVSITCPEIAREVLRKQDANFISRPLTFASETFSGGYRNAVLSPYGDQWKKMRRVLTSEIICPSRHAWLHDKRTDEADNLTRYVYNLATKAATGDVAVDVRHVARHYCGNVIRRLMFNRRYFGEPQADGGPGPMEVLHMDAVFTSLGLLYAFCVSDYLPWLRGLDLDGHEKIVKEANVAVNRLHDTVIDDRWRQWKSGERQEMEDFLDVLITLKDAQGNPLLTIEEVKAQSQDITFAAVDNPSNAVEWALAEMVNNPEVMAKAMEELDRVVGRERLVQESDIPKLNYVKACIREAFRLHPVAPFNVPHVALADTTIAGYRVPKGSHVILSRTGLGRNPRVWDEPLRFYPDRHLATAASDVALTENDLRFISFSTGRRGCIAASLGTAMSVMLFGRLLQGFTWSKPAGVEAVDLSESKSDTFMATPLVLHAEPRLPAHLYPSISI
In test [2], B1 came in with a conversion of L-tyrosine to p-hydroxyphenylacetaldehyde oxime by the enzyme reconstituted in DLPC micelles (turn-over number) of 228 min⁻¹.
